From WO2021244601A1 (dated 2021)

What was measured:
Assay in all cases: cell-based or functional assay
[1] = biological target: S protein on pseudovirus of p.1 strain (SARS-CoV-2 p.1 strain)
[2] = biological target: S protein on pseudovirus of B.1.1.7 strain (hCoV-19/England/QEUH-F56F0F/2021) (SARS-CoV-2 B.1.1.7 strain)
[3] = biological target: S protein on pseudovirus of B.1.351 strain (SARS-CoV-2 B.1.351 strain)

| Binder | IC50, pseudovirus neutralisation (method as 3.15) [1] [nM] | IC50, pseudovirus neutralisation (method as 3.15) [2] [nM] | IC50, pseudovirus neutralisation (method as 3.15) [3] [nM] |
| --- | --- | --- | --- |
| CA304 (antibody, V domains shown) VH: EVQLQQWGAGLLKPSETLSLTCAVYGGSFSGYYWSWIRQPPGKGLEWIGEVNHSGSTNYNPSLKSRVTISVDTSKNQLSLKLNSVTAADTAVYYCARGNTMVRGVIIPFEYWDKGTLVTVSS VL: DIVMTQTPLSLPVTLGQPASISCRSSQSLVHSDGNTYLNWFQQRPGQSPRRLIYKVSNRDSGVPDRFSGSGAGTDFTLKISRVEAEDVGVYYCTQATQFPFTFGPGTKVDIKR | 3.53 | 4.06 | 12.2 |
| CA555 (antibody, V domains shown) VH: EVQLQQWGAGLLKPSETLSLTCAVYGGSFSGYYWSWIRQPPGKGLEWIGEVNHSGSTNYNPSLKSRVTISVDTSKNQLSLKLNSVTAADTAVYYCARGNTMVRGVIIPFEYWDKGTLVTVSS VL: not shown | 1.58 | 3.17 | 13.9 |
